This note sets out measurements from patent publication US7314621B2, “Cytidine deaminase” (Kyoto University, priority 1999, dated 2008).

Data set [1] is described as follows: Cytidine deaminase activity of the AID protein ([3H]deoxycytidine to deoxyuridine, TLC). Type of data set: biochemical. The settings on record: AID-GST fusion protein 2 to 600 ng, pH 7.5, 2 to 4 hours. On the procedure:
A cytidine deaminase activity of AID was measured by the same method as in the previous report (J Biol. Chem. 270:14768-14775, 1995).
The purified AID-GST fusion protein prepared in the above (2, 4, 6, 8, 10, 20, 40, 60, 100, 200, 300, 400, and 600 ng) was incubated in the buffer (pH 7.5, the total amount 10 μl) containing 45 mM Tris with 3.3 μCi [^3H] deoxycytidine (24.8 Ci/mmol, DuPont) and 250 μM cytidine for 2 to 4 hours. The reaction was terminated by adding deoxycytidine (2 μl of 10 μg/ml) and deoxyuridine (2 μl of 10 μg/ml). Insoluble substances were removed by centrifugation, and the reaction mixture (4 μl) was subjected to the polyethylene imine-cellulose thin layer chromatography plate (VWR). The plate was developed in isopropyl alcohol/10% HCl (7:2 v/v). The plate was exposed to ultraviolet light (254 nm) for visualization and bands corresponding to deoxycytidine and deoxyuridine were collected, and added to Ultima Gold scintillation solution to be quantified by liquid scintillation photometer (Packard)

The next data set has as its system AU-rich RNA (5-AU). Description: Gel retardation assay, avidity to AU-rich RNA. It is filed as binding. The source says:
Since the AID protein has a functional cytidine deaminase activity as well as a structural similarity to APOBEC-1, to examine RNA editing activity in the AID protein, avidity to AU-rich RNA (5-AU) and apoB RNA (which are RNA substrates for APOBEC-1) was examined.

B1: AID protein: activation-induced cytidine deaminase, novel mouse protein (SEQ ID NO:2), tested as purified GST fusion protein (protein)
chain: MDSLLMKQKKFLYHFKNVRWAKGRHETYLCYVVKRRDSATSCSLDFGHLRNKSGCHVELLFLRYISDWDLDPGRCYRVTWFTSWSPCYDCARHVAEFLRWNPNLSLRIFTARLYFCEDRKAEPEGLRRLHRAGVQIGIMTFKDYFYCWNTFVENRERTFKAWEGLHENSVRLTRQLRRILLPLYEVDDLRDAFRMLGF
modifications: left off: a dimerising Fc or GST
Turning to B1, the cytidine deaminase activity result in data set [1] is “concentration-dependent cytidine deaminase activity”. Besides, in the data set on AU-rich RNA (5-AU), the “avidity to AU-rich RNA (5-AU)” value is given as “did not show avidity”.
